Test results published in US20150344570A1 (published 2015).

T1: FcγRIIb extracellular domain with C-terminal His tag (human, UniProt P31994 43-217)
T1 construct: extracellular domain; Soluble receptor used as analyte in Biacore; also called FcgRIIb; CD32B
T1 sequence (looked up): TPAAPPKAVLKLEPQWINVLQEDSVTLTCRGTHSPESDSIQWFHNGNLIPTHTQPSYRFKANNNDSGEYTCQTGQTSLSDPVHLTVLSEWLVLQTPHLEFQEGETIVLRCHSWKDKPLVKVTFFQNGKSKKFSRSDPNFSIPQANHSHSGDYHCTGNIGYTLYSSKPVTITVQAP

T2: FcγRIIb extracellular domain with C-terminal His tag (human, UniProt P31994 43-217)
T2 construct: extracellular domain; also called FcgRIIb; 2b
T2 sequence (looked up): T1 sequence (looked up)

B1: GpH7-A5/GpH7-B3 variant Q295_01G/GpL16-k0 (antibody, human IgG1, kappa)
heavy 1: not shown
heavy 2: not shown
light: DIVMTQSPLSLPVTPGEPASISCQASESLVHSNRNTYLHWYLQKPGQSPQLLIYKVSNRFSGVPDRFSGSGSGTDFTLKISRVEAEDVGVYYCSQNTHVPPTFGQGTKVEIERTVAAPSVFIFPPSDEQLKSGTASVVCLLNNFYPREAKVQWKVDNALQSGNSQESVTEQDSKDSTYSLSSTLTLSKADYEKHKVYACEVTHQGLSSPVTKSFNRGEC
notes: Heterodimerized anti-glypican-3 IgG1; alteration only in the GpH7-B3 chain, EU numbering; also called He Ab
B2: GpH7-A5/GpH7-B3 variant D270_20W/GpL16-k0 (antibody, human IgG1, kappa)
heavy 1: not shown
heavy 2: not shown
light: B1 light
notes: as for B1
B3: GpH7-A5/GpH7-B3 variant Q295_02A/GpL16-k0 (antibody, human IgG1, kappa)
heavy 1: not shown
heavy 2: not shown
light: B1 light
notes: as for B1
B4: GpH7-A5/GpH7-B3 variant Q295_03V/GpL16-k0 (antibody, human IgG1, kappa)
heavy 1: not shown
heavy 2: not shown
light: B1 light
notes: as for B1
B5: GpH7-A5/GpH7-B3 variant Q295_04F/GpL16-k0 (antibody, human IgG1, kappa)
heavy 1: not shown
heavy 2: not shown
light: B1 light
notes: as for B1
B6: GpH7-A5/GpH7-B3 variant Q295_05P/GpL16-k0 (antibody, human IgG1, kappa)
heavy 1: not shown
heavy 2: not shown
light: B1 light
notes: as for B1
B7: GpH7-A5/GpH7-B3 variant Q295_07I/GpL16-k0 (antibody, human IgG1, kappa)
heavy 1: not shown
heavy 2: not shown
light: B1 light
notes: as for B1
B8: GpH7-A5/GpH7-B3 variant Q295_09D/GpL16-k0 (antibody, human IgG1, kappa)
heavy 1: not shown
heavy 2: not shown
light: B1 light
notes: as for B1
B9: GpH7-A5/GpH7-B3 variant Q295_11K/GpL16-k0 (antibody, human IgG1, kappa)
heavy 1: not shown
heavy 2: not shown
light: B1 light
notes: as for B1
B10: GpH7-A5/GpH7-B3 variant Q295_12R/GpL16-k0 (antibody, human IgG1, kappa)
heavy 1: not shown
heavy 2: not shown
light: B1 light
notes: as for B1
B11: GpH7-A5/GpH7-B3 variant Q295_13S/GpL16-k0 (antibody, human IgG1, kappa)
heavy 1: not shown
heavy 2: not shown
light: B1 light
notes: as for B1
B12: GpH7-A5/GpH7-B3 variant Q295_14T/GpL16-k0 (antibody, human IgG1, kappa)
heavy 1: not shown
heavy 2: not shown
light: B1 light
notes: as for B1
B13: GpH7-A5/GpH7-B3 variant Q295_15Y/GpL16-k0 (antibody, human IgG1, kappa)
heavy 1: not shown
heavy 2: not shown
light: B1 light
notes: as for B1
B14: GpH7-A5/GpH7-B3 variant Q295_16H/GpL16-k0 (antibody, human IgG1, kappa)
heavy 1: not shown
heavy 2: not shown
light: B1 light
notes: as for B1
B15: GpH7-A5/GpH7-B3 variant Q295_18N/GpL16-k0 (antibody, human IgG1, kappa)
heavy 1: not shown
heavy 2: not shown
light: B1 light
notes: as for B1
B16: GpH7-A5/GpH7-B3 variant Q295_20W/GpL16-k0 (antibody, human IgG1, kappa)
heavy 1: not shown
heavy 2: not shown
light: B1 light
notes: as for B1
B17: GpH7-A5/GpH7-B3 variant S298_01G/GpL16-k0 (antibody, human IgG1, kappa)
heavy 1: not shown
heavy 2: not shown
light: B1 light
notes: as for B1
B18: GpH7-A5/GpH7-B3 variant S298_02A/GpL16-k0 (antibody, human IgG1, kappa)
heavy 1: not shown
heavy 2: not shown
light: B1 light
notes: Heterodimerized anti-glypican-3 IgG1; S298A (EU numbering) only in the GpH7-B3 chain; also called He Ab; GpH7-A5/GpH7-B3-15-02A/GpL16-k0
B19: GpH7-A5/GpH7-B3 variant E269_13S/GpL16-k0 (antibody, human IgG1, kappa)
heavy 1: not shown
heavy 2: not shown
light: B1 light
notes: Heterodimerized anti-glypican-3 IgG1; mutation in the GpH7-B3 chain only; also called He Ab E269S
B20: GpH7-A5/GpH7-B3 variant E269_14T/GpL16-k0 (antibody, human IgG1, kappa)
heavy 1: not shown
heavy 2: not shown
light: B1 light
notes: Heterodimerized anti-glypican-3 IgG1; mutation in the GpH7-B3 chain only; also called He Ab E269T

target: T3, FcγRIa extracellular domain with C-terminal His tag (human, UniProt P12314 16-292); assay: SPR (Biacore); He/Con_1a divided by He/Con_2b (FcγRIa binding over FcγRIIb binding)
T3 construct: extracellular domain; also called FcgRI; 1a
Procedure: (§1) The heterodimerized antibodies He Abs in which one of the H chains was introduced with an alteration were assayed for their binding activities to each activating FcγR and inhibitory FcγR according to the method described in Example 4. […] The activating FcγRs in FIGS. 26, 27, 28, and 29 are FcγRIa, FcγRIIa (R), FcγRIIa (H), and FcγRIIIa, respectively.
(§2) Analysis of interaction between objective antibody and the FcγR was carried out using Biacore T100 (GE Healthcare). HBS-EP+ (GE Healthcare) was used as the running buffer, and the measurement temperature was set to 25° C. Chips produced by immobilizing the antigen peptide by the amine coupling method to a Series S Sencor Chip CM5 (GE Healthcare), or alternatively, chips produced by allowing preliminarily biotinylated antigen peptides to interact with and immobilize onto a Series S Sensor Chip SA (certified) (GE Healthcare) were used. Antibodies of interest were captured onto an antigen peptide-immobilized chip, and allowed to interact to each FcγR diluted with running buffer. To regenerate and repeatedly use the chip, the antibodies captured on the chip were washed off by reacting 10 mM glycine-HCl, pH 1.5.
T3 sequence (P12314 16-292): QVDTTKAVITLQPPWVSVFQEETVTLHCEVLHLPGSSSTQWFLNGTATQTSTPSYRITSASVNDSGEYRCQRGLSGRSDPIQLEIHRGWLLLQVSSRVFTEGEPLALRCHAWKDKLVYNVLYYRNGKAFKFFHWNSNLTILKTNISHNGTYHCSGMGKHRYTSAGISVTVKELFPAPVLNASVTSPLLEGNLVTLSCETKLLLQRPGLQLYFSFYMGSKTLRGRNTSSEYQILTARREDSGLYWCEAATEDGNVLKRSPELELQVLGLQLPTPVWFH

Binder | He_1a/2b (Ia/IIb)
B1 | 2.12 ratio
B2 | 1.96 ratio
B3 | 1.31 ratio
B4 | 1.37 ratio
B5 | 1.58 ratio
B6 | 1.53 ratio
B7 | 1.22 ratio
B8 | 1.65 ratio
B9 | 1.44 ratio
B10 | 1.54 ratio
B11 | 1.79 ratio
B12 | 1.54 ratio
B13 | 1.56 ratio
B14 | 1.64 ratio
B15 | 1.58 ratio
B16 | 2.11 ratio
B17 | 1.29 ratio
B18 | 1.45 ratio

target: T1, FcγRIIb extracellular domain with …; assay: SPR Biacore, antibody captured on antigen-peptide chip, FcγR as analyte

Binder | He/Con_2b
B19 | 47.8 relative, GpH7-A5/GpH7-B3/GpL16-k0 = 100
B20 | 50.6 relative, GpH7-A5/GpH7-B3/GpL16-k0 = 100

target: T4, FcγRIa extracellular domain with C-terminal His tag (human, UniProt P12314 16-292); assay: as above
T4 construct: extracellular domain; Soluble receptor used as analyte in Biacore; also called FcgRI; FcgRIa
T4 sequence (P12314 16-292): as above

Binder | He/Con_1a
B19 | 103 relative, GpH7-A5/GpH7-B3/GpL16-k0 = 100
B20 | 106 relative, GpH7-A5/GpH7-B3/GpL16-k0 = 100

target: T2, FcγRIIb extracellular domain with …; assay: SPR (Biacore), antibody captured via antigen peptide, FcγR as analyte; relative binding
Procedure: as §1, §2

Binder | He/Con_2b
B1 | 46 % of GpH7-A5/GpH7-B3/GpL16-k0 (=100)
B2 | 34.7 % of GpH7-A5/GpH7-B3/GpL16-k0 (=100)
B3 | 79.7 % of GpH7-A5/GpH7-B3/GpL16-k0 (=100)
B4 | 75.7 % of GpH7-A5/GpH7-B3/GpL16-k0 (=100)
B5 | 64.7 % of GpH7-A5/GpH7-B3/GpL16-k0 (=100)
B6 | 67.5 % of GpH7-A5/GpH7-B3/GpL16-k0 (=100)
B7 | 84.3 % of GpH7-A5/GpH7-B3/GpL16-k0 (=100)
B8 | 60.8 % of GpH7-A5/GpH7-B3/GpL16-k0 (=100)
B9 | 70.4 % of GpH7-A5/GpH7-B3/GpL16-k0 (=100)
B10 | 65.2 % of GpH7-A5/GpH7-B3/GpL16-k0 (=100)
B11 | 56.9 % of GpH7-A5/GpH7-B3/GpL16-k0 (=100)
B12 | 66.8 % of GpH7-A5/GpH7-B3/GpL16-k0 (=100)
B13 | 65.4 % of GpH7-A5/GpH7-B3/GpL16-k0 (=100)
B14 | 62.7 % of GpH7-A5/GpH7-B3/GpL16-k0 (=100)
B15 | 64.9 % of GpH7-A5/GpH7-B3/GpL16-k0 (=100)
B16 | 44.4 % of GpH7-A5/GpH7-B3/GpL16-k0 (=100)
B17 | 80.1 % of GpH7-A5/GpH7-B3/GpL16-k0 (=100)
B18 | 73.4 % of GpH7-A5/GpH7-B3/GpL16-k0 (=100)

target: T3, FcγRIa extracellular domain with …; assay: as above
Procedure: as §1, §2

Binder | He/Con_1a
B1 | 97.6 % of GpH7-A5/GpH7-B3/GpL16-k0 (=100)
B2 | 68 % of GpH7-A5/GpH7-B3/GpL16-k0 (=100)
B3 | 104 % of GpH7-A5/GpH7-B3/GpL16-k0 (=100)
B4 | 104 % of GpH7-A5/GpH7-B3/GpL16-k0 (=100)
B5 | 102 % of GpH7-A5/GpH7-B3/GpL16-k0 (=100)
B6 | 103 % of GpH7-A5/GpH7-B3/GpL16-k0 (=100)
B7 | 103 % of GpH7-A5/GpH7-B3/GpL16-k0 (=100)
B8 | 100 % of GpH7-A5/GpH7-B3/GpL16-k0 (=100)
B9 | 101 % of GpH7-A5/GpH7-B3/GpL16-k0 (=100)
B10 | 100 % of GpH7-A5/GpH7-B3/GpL16-k0 (=100)
B11 | 102 % of GpH7-A5/GpH7-B3/GpL16-k0 (=100)
B12 | 103 % of GpH7-A5/GpH7-B3/GpL16-k0 (=100)
B13 | 102 % of GpH7-A5/GpH7-B3/GpL16-k0 (=100)
B14 | 102 % of GpH7-A5/GpH7-B3/GpL16-k0 (=100)
B15 | 102 % of GpH7-A5/GpH7-B3/GpL16-k0 (=100)
B16 | 93.7 % of GpH7-A5/GpH7-B3/GpL16-k0 (=100)
B17 | 104 % of GpH7-A5/GpH7-B3/GpL16-k0 (=100)
B18 | 107 % of GpH7-A5/GpH7-B3/GpL16-k0 (=100)
